Experimental data published in patent publication US20230227545A1 (published 2023).

Columns and labels:
[1] = molecular target: T1, human IL-1β (human, UniProt P01584 117-269); assay: cell-based or functional assay
[2] = molecular target: T2, cynomolgus IL-1β (cynomolgus macaque, UniProt P79182 117-268); assay: SPR, Biacore 8K, mAb captured on goat anti-human Fc C1 chip, soluble IL-1β as analyte, 1:1 Langmuir fit
T2 construct: also called cyno IL-1β; Cyno IL-β
T2 sequence (looked up): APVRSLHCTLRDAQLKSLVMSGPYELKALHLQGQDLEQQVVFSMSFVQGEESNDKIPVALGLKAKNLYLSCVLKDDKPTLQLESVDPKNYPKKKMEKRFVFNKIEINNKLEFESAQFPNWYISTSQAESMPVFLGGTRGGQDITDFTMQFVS
Procedure: (§1) Affinity assessment of 05H21A, 15N14A, and 08F17A against human IL-1β was performed by Surface Plasmon Resonance (SPR) using a Biacore 8k. Cross-reactivity of the same antibody panel was also assessed against cyno, mouse, rat and pig IL-1β.
(§2) SPR is a label-free technique to study the strength of an interaction between two binding partners by measuring the change in mass upon complex formation and dissociation. Briefly, antibodies were immobilized on a sensor chip which was coupled with goat anti-human Fc (GAH-Fc C1 sensor chip). Soluble IL-1β was flowed over the immobilized antibody and association/dissociation responses were monitored. Kinetic information (on-rate and off-rate constants) were extracted by fitting sensorgrams to the 1:1 Langmuir model. Binding affinity (KD) were reported as the ratio of rate constants (koff/kₒₙ).

[3] = molecular target: T1, human IL-1β; assay: as above
Procedure: as §1, §2

[4] = molecular target: T1, human IL-1β; assay: cell-based or functional assay; remark: listed apart in the source
[5] = molecular target: T3, pig IL-1β (pig, UniProt P26889 115-267); assay: SPR, Biacore 8K, mAb captured on anti-human Fc chip, soluble IL-1β as analyte
T3 construct: also called pig IL-β
T3 sequence (looked up): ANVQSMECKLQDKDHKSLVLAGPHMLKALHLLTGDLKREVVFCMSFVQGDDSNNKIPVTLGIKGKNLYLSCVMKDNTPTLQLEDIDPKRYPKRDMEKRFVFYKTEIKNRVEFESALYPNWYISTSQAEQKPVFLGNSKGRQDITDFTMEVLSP
Procedure: as §1, §2

[6] = molecular target: T1, human IL-1β; assay: cell-based or functional assay; remark: listed apart in the source
[7] = molecular target: T2, cynomolgus IL-1β; assay: cell-based or functional assay
[8] = molecular target: T4, rat IL-1β (rat, UniProt Q63264 117-268); assay: SPR, Biacore 8K, mAb captured on goat anti-human Fc C1 chip, soluble IL-1β as analyte, 1:1 Langmuir fit
T4 construct: also called rat IL-β
T4 sequence (looked up): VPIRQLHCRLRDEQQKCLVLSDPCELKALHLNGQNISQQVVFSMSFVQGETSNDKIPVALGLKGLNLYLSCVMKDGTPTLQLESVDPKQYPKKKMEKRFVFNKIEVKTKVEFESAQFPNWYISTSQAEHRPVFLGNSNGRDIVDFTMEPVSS
Procedure: as §1, §2

[9] = molecular target: T5, mouse IL-1β (mouse, UniProt P10749 118-269); assay: SPR, Biacore 8K, mAb captured on anti-human Fc chip, soluble IL-1β as analyte
T5 construct: also called mouse IL-β
T5 sequence (looked up): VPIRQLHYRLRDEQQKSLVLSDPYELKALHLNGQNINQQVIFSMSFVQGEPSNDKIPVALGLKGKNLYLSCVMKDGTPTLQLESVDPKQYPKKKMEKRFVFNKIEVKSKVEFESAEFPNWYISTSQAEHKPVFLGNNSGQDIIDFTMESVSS
Procedure: as §1, §2

B1: 05H21A (antibody, human IgG1, lambda, V domains shown)
VH: QVTLRESGPALVKPTQTLTLTCTFSGFSLSTSGMWVSWIRQPPGKALEWLALIDWGDDKYYTTSLKTRLTISKDTSKNQVVLTMTNMDPVDTATYYCARMREGSRAFDIWGQGTVVTVSS
VL: QSVLTQPPSVSEAPRQRVTISCSGSSSNIGDNAVNWYQQLPGKAPKLLIYNDDLLSSGVSDRFSGSKSGTSASLAISGLQSEDEADYYCAAWDDSLNGPVFGGGTKLTVLG
notes: Lambda light chain; also called 05H21A (anti-IL-1β) mAb [IgG1: YTE]
[1]
  IC30, inhibition of IL-6 release, human PBMCs (n=5 donors), 10 pM rhIL-1β: 43 pM
  IC30, inhibition of IL-6 release, human PBMCs (n=5 donors), 30 pM rhIL-1β: 0.104 nM
  IC50, inhibition of IL-6 release, human PBMCs (n=5 donors), 10 pM rhIL-1β: 70 pM
  IC50, inhibition of IL-6 release, human PBMCs (n=5 donors), 30 pM rhIL-1β: 0.164 nM
  IC90, inhibition of IL-6 release, human PBMCs (n=5 donors), 10 pM rhIL-1β: 0.244 nM
  IC90, inhibition of IL-6 release, human PBMCs (n=5 donors), 30 pM rhIL-1β: 0.533 nM
[2]
  Kd: 0.022 nM
  koff: 0.000348 s⁻¹
  kon: 1.58e+07 M⁻¹ s⁻¹
[3]
  Kd: 0.0197 nM
  koff: 0.000422 s⁻¹
  kon: 2.14e+07 M⁻¹ s⁻¹
[4]
  IC30, inhibition of rhIL-1β-induced CXCL5 release, human whole blood (5 donors): 0.4 nM
  IC30, inhibition of rhIL-1β-induced G-CSF release, human whole blood (5 donors): 0.364 nM
  IC30, inhibition of rhIL-1β-induced IL-6 release, human whole blood (5 donors): 0.393 nM
  IC50, inhibition of rhIL-1β-induced CXCL5 release, human whole blood (5 donors): 0.622 nM
  IC50, inhibition of rhIL-1β-induced G-CSF release, human whole blood (5 donors): 0.632 nM
  IC50, inhibition of rhIL-1β-induced IL-6 release, human whole blood (5 donors): 0.631 nM
  IC90, inhibition of rhIL-1β-induced CXCL5 release, human whole blood (5 donors): 1.95 nM
  IC90, inhibition of rhIL-1β-induced G-CSF release, human whole blood (5 donors): 2.64 nM
  IC90, inhibition of rhIL-1β-induced IL-6 release, human whole blood (5 donors): 2.16 nM
[5]
  binding result: no binding
[6]
  IC30, inhibition of rhIL-1β-induced cytokine release, NHDF donor 29114: 0.039 nM
  IC30, inhibition of rhIL-1β-induced cytokine release, NHLF donor 34325: 0.071 nM
  IC30, inhibition of rhIL-1β-induced cytokine release, NHLF donor 35234: 0.042 nM
  IC50, inhibition of rhIL-1β-induced cytokine release, NHDF donor 29114: 0.078 nM
  IC50, inhibition of rhIL-1β-induced cytokine release, NHLF donor 34325: 0.167 nM
  IC50, inhibition of rhIL-1β-induced cytokine release, NHLF donor 35234: 0.098 nM
  IC90, inhibition of rhIL-1β-induced cytokine release, NHDF donor 29114: 0.49 nM
  IC90, inhibition of rhIL-1β-induced cytokine release, NHLF donor 34325: 1.51 nM
  IC90, inhibition of rhIL-1β-induced cytokine release, NHLF donor 35234: 0.89 nM
[7]
  IC30, inhibition of G-CSF release, cynomolgus lung fibroblasts (CLF), 15 pM rcynoIL-1β: 0.195 nM
  IC30, inhibition of IL-6 release, cynomolgus dermal fibroblasts (CDF), 5 pM rcynoIL-1β: 89 pM
  IC30, inhibition of IL-6 release, cynomolgus lung fibroblasts (CLF), 15 pM rcynoIL-1β: 0.214 nM
  IC50, inhibition of G-CSF release, cynomolgus dermal fibroblasts (CDF), 5 pM rcynoIL-1β: 59 pM
  IC50, inhibition of G-CSF release, cynomolgus lung fibroblasts (CLF), 15 pM rcynoIL-1β: 0.27 nM
  IC50, inhibition of IL-6 release, cynomolgus dermal fibroblasts (CDF), 5 pM rcynoIL-1β: 0.175 nM
  IC50, inhibition of IL-6 release, cynomolgus lung fibroblasts (CLF), 15 pM rcynoIL-1β: 0.306 nM
  IC90, inhibition of G-CSF release, cynomolgus lung fibroblasts (CLF), 15 pM rcynoIL-1β: 0.63 nM
  IC90, inhibition of IL-6 release, cynomolgus dermal fibroblasts (CDF), 5 pM rcynoIL-1β: 0.997 nM
  IC90, inhibition of IL-6 release, cynomolgus lung fibroblasts (CLF), 15 pM rcynoIL-1β: 0.779 nM

B2: 15N14A (antibody, human IgG1, lambda, V domains shown)
VH: QVQLQESGPGLVKPSETLSLTCTVSGGSISSYYWTWIRQPAGKGLEWIGRIDSSGSSKYNPTLKSRVTMSVDTSKNQFSLKLSSVTAADTAVYYCARGDSGYDWAFDYWGQGTLVTVSS
VL: QAVLTQPSSLSASPGASASLTCTLRSGINVGTYRIYWYQQKPGSPPQYLLSYKSDSDKQQGSGVPSRFSGSKDASANVGILLISGLQSEDEADYYCMIWHSSAWVFGGGTKLTVLG
notes: Lambda light chain; also called 15N14A (anti-IL-1β) mAb [IgG1: YTE]
[1]
  IC30, inhibition of IL-6 release, human PBMCs (n=5 donors), 10 pM rhIL-1β: 32 pM
  IC30, inhibition of IL-6 release, human PBMCs (n=5 donors), 30 pM rhIL-1β: 75 pM
  IC50, inhibition of IL-6 release, human PBMCs (n=5 donors), 10 pM rhIL-1β: 56 pM
  IC50, inhibition of IL-6 release, human PBMCs (n=5 donors), 30 pM rhIL-1β: 0.12 nM
  IC90, inhibition of IL-6 release, human PBMCs (n=5 donors), 10 pM rhIL-1β: 0.226 nM
  IC90, inhibition of IL-6 release, human PBMCs (n=5 donors), 30 pM rhIL-1β: 0.409 nM
[2]
  Kd: 0.07 nM
  koff: 0.000209 s⁻¹
  kon: 3.01e+06 M⁻¹ s⁻¹
[3]
  Kd: 0.064 nM
  koff: 0.000141 s⁻¹
  kon: 2.2e+06 M⁻¹ s⁻¹
[8]
  Kd: 74.5 nM
  koff: 0.0574 s⁻¹
  kon: 771000 M⁻¹ s⁻¹
[4]
  IC30, inhibition of rhIL-1β-induced CXCL5 release, human whole blood (5 donors): 0.364 nM
  IC30, inhibition of rhIL-1β-induced G-CSF release, human whole blood (5 donors): 0.299 nM
  IC30, inhibition of rhIL-1β-induced IL-6 release, human whole blood (5 donors): 0.36 nM
  IC50, inhibition of rhIL-1β-induced CXCL5 release, human whole blood (5 donors): 0.603 nM
  IC50, inhibition of rhIL-1β-induced G-CSF release, human whole blood (5 donors): 0.52 nM
  IC50, inhibition of rhIL-1β-induced IL-6 release, human whole blood (5 donors): 0.595 nM
  IC90, inhibition of rhIL-1β-induced CXCL5 release, human whole blood (5 donors): 2.24 nM
  IC90, inhibition of rhIL-1β-induced G-CSF release, human whole blood (5 donors): 2.18 nM
  IC90, inhibition of rhIL-1β-induced IL-6 release, human whole blood (5 donors): 2.18 nM
[9]
  binding result: no binding
[5]
  binding result: no binding
[6]
  IC30, inhibition of rhIL-1β-induced cytokine release, NHDF donor 29114: 0.069 nM
  IC30, inhibition of rhIL-1β-induced cytokine release, NHLF donor 34325: 0.128 nM
  IC30, inhibition of rhIL-1β-induced cytokine release, NHLF donor 35234: 0.09 nM
  IC50, inhibition of rhIL-1β-induced cytokine release, NHDF donor 29114: 0.127 nM
  IC50, inhibition of rhIL-1β-induced cytokine release, NHLF donor 34325: 0.253 nM
  IC50, inhibition of rhIL-1β-induced cytokine release, NHLF donor 35234: 0.178 nM
  IC90, inhibition of rhIL-1β-induced cytokine release, NHDF donor 29114: 0.626 nM
  IC90, inhibition of rhIL-1β-induced cytokine release, NHLF donor 34325: 1.48 nM
  IC90, inhibition of rhIL-1β-induced cytokine release, NHLF donor 35234: 1.04 nM
[7]
  IC30, inhibition of G-CSF release, cynomolgus lung fibroblasts (CLF), 15 pM rcynoIL-1β: 0.129 nM
  IC30, inhibition of IL-6 release, cynomolgus dermal fibroblasts (CDF), 5 pM rcynoIL-1β: 93 pM
  IC30, inhibition of IL-6 release, cynomolgus lung fibroblasts (CLF), 15 pM rcynoIL-1β: 0.192 nM
  IC50, inhibition of G-CSF release, cynomolgus lung fibroblasts (CLF), 15 pM rcynoIL-1β: 0.261 nM
  IC50, inhibition of IL-6 release, cynomolgus dermal fibroblasts (CDF), 5 pM rcynoIL-1β: 0.156 nM
  IC50, inhibition of IL-6 release, cynomolgus lung fibroblasts (CLF), 15 pM rcynoIL-1β: 0.376 nM
  IC90, inhibition of G-CSF release, cynomolgus lung fibroblasts (CLF), 15 pM rcynoIL-1β: 1.63 nM
  IC90, inhibition of IL-6 release, cynomolgus dermal fibroblasts (CDF), 5 pM rcynoIL-1β: 0.594 nM
  IC90, inhibition of IL-6 release, cynomolgus lung fibroblasts (CLF), 15 pM rcynoIL-1β: 2.14 nM
